Molecular target: T1, Myc-hFis1[1-152] (human), Q9Y3D6
T1 chain: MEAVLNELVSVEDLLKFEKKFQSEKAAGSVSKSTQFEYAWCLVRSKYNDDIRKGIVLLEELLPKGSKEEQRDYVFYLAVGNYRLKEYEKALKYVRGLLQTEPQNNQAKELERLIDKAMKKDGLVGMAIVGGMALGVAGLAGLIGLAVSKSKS
Assay: cross-linking
Details: remark: other sources report otherwise

- stoichiometry N: 2
B1: Myc-hFis1[1-152], Q9Y3D6 1-152 (natural protein)
chain: T1 chain

— article PMC2605612
